Measured values as given in the supplement of paper PMC9170038.

Test system: MS2 coat protein
Test: apparent KD of MS2 coat protein; designed switch direction (-1 OFF switch, 1 ON switch): -1; higher = weaker reporter binding
In short: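 Transcription of designed RNA switches on Illumina chips was done by stalled E. coli RNA polymerase. SNAP-549-labelled MS2 coat protein was then titrated in doubling steps from 0.7 or 1.5 nM to 3 µM, with steps of 0.8–1.5 h at the lowest and 10–20 min at the highest concentration. The per-design median over clusters of curve-fitted normalised fluorescence is reported as apparent KD.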

[1] = input ligand: microRNA oligo, concentration not stated
[2] = Eterna round: R95, input ligand: microRNA oligo, concentration not stated
[3] = Eterna round: R95, input ligand: FMN 200 uM
[4] = Eterna round: R95, input ligand: none

Sequence | apparent KD of MS2 coat protein (input ligand: FMN 200 uM) | apparent KD of MS2 coat protein (input ligand: none) | apparent KD of MS2 coat protein [1] | apparent KD of MS2 coat protein [2] | apparent KD of MS2 coat protein [3] | apparent KD of MS2 coat protein [4]
GAGAAACAUGAGGAUCACCCAUGUAAGGAUAUGGCGAGAGCUGGAGUACUAGCGCCGUUCAGAAGGUACAUGAG [Eternabot (L2) Solution 27] (Eterna round: R97, puzzle: Exclusion 1) | 218 nM | 95.9 nM |  |  |  | 
GUUAUGUCAGGAUAUGCUAAUGAUGAGUGCUCAGACAUGAUGCAGAAGGGACAUGAGGAUCACCCAUGUACUGA [EX4 #12] (Eterna round: R97, puzzle: Exclusion 4) | 102 nM | 35.3 nM |  |  |  | 
UGUUGUCGCGCAGGAUAUGAGGAUCACCCAUAUAAAGGAUAUGAAAAGAAGGUUCUGAGGAUUACCCAGAAGGGCGGGACAACU [pwkr exNG2 2xF5 2xFMN.16] (Eterna round: R96, puzzle: Exclusion NG 2) | 250 nM | 52.3 nM | 40.3 nM |  |  | 
UAACUACAUGUAGGAUAUGCGUGGCGAAGCUAUGCAGAAGGACAUGAGGAUCACCCAUGUUUUAGCGUCUGCGUACAGAUGCGU [JL ENG1 1.50] (Eterna round: R96, puzzle: Exclusion NG 1) | 34.8 nM | 19.1 nM | 13.1 nM |  |  | 
UAAAUGUGAGGAUAUCAGGUGUGCUAGAGAACUGGUACAUCUGAGAAGGCACAUGAGGAUCACCCAUGUUCUUC [Mat - Exclusion 4 - Mod of JL - D56] (puzzle: Exclusion 4) |  |  |  | 38.3 nM |  | 
UUUAUAGUAGGAUAUACAUGAGGAUCACCCAUGUAGUAGGGAAGACCUUGGUGGGAACGUAGAAGGACUUGGAG [Eternabot (L2) Solution 44] (Eterna round: R97, puzzle: Exclusion 3) | 73.3 nM | 74.2 nM |  |  |  | 
ACGGGUAAGUAAGGAUAUCCAACAGGCUGAAUUCAACCUGAACAUGAGGAUCACCCAUGUGGGUGGGAGAAGGUACUCUCCCGC [Diladiaen] (Eterna round: R96, puzzle: Exclusion NG 2) | 86.5 nM | 93.7 nM | 65.5 nM |  |  | 
GGUCCACAUGAGGAUCACCCAUGUUAGGAUAUCUCCCGCCUCCUCACUGGAGACGGACAGAGAAGGAACAUCAA [Vetibele] (Eterna round: R96, puzzle: Exclusion 1) | 104 nM | 24.3 nM | 20.5 nM |  |  | 
GGAUAAAAGGCAGGAUAUACGUAUCACUAACGAGUAGAAGGGCCACAUGAGGAUCACCCAUGUGAGUUCUCAAUAAGAAACACG [Prohibition 63 - Jieux - Exclusion NG 1] (Eterna round: R96, puzzle: Exclusion NG 1) | 15.3 nM | 14.2 nM | 10.7 nM |  |  | 
UAGAAAGGUAAGGAUAUCCAUGUGAAAUAAAGAGGAGAAGGUACCACAUGAGGAUCACCCAUGUGGCUCUCAAA [jl-ex6-4.54 Nando mod] (Eterna round: R97, puzzle: Exclusion 6) | 13.8 nM | 14.7 nM |  |  |  | 
AGAGUGCUGCGAGGAUAUACAUGAGGAUCACCCAUGUAAAAGUGUGAGGCAAAGCCUCACACUAUGUAGAAGGCGCAGUACUCA [Mat - Exclusion NG 2 - Mod of JL - D11] (Eterna round: R96, puzzle: Exclusion NG 2) | 20.2 nM | 19.3 nM | 12.6 nM |  |  | 
GGUCGACAUGAGGAUCACCCAUGUCAGGAUAUCGUCACUGGAGCUUCGGCUCCAGUGACGAGAAGGGAUAUAAU [E1/15-A1] (Eterna round: R97, puzzle: Exclusion 1) | 24.6 nM | 36.9 nM |  |  |  | 
GGUGGACAUGAGGAUCACCCAUGUGAGGAUAUCGGCUAUCUACUCGCUGACGGUUGCUCGAGAAGGCACAUUGU [Exclusion 1 V92] (puzzle: Exclusion 1) |  |  |  | 90.9 nM |  | 
AGACAGUCAGGAUAUACAUGAGGAUCACCCAUGUUGAGAUGAGAAAGGGCAGGAAUAGGUAGAAGGGACGAGAG [JR_Exclu3_Sub037] (puzzle: Exclusion 3) |  |  |  | 20.1 nM | 30.5 nM | 26.2 nM
GUAGAGUGAGGAUAUACAAGAUCGAAAGAUCGGCGAUCCAUACAUGAGGAUCACCCAUGUAGAAGGCACUCUAC [Eli x2 4.007] (Eterna round: R97, puzzle: Exclusion 2) | 678 nM | 102 nM |  |  |  | 
ACAUGAGGAUCACCCAUGUCAGGCGGGUCCACUCCGGCUGUUGAGGAUAUAGUUCGGUAUCCGCGCUAGAAGGUGAGGGCCGGC [Aenatbe mod 22] (Eterna round: R96, puzzle: Exclusion NG 3) | 16 nM | 18.2 nM | 15.3 nM |  |  | 
CAAUAGUGAGGAUAUCUGAUCACACCAUGAAGAAGGAGUGUAGAGAAGGCACAUGAGGAUCACCCAUGUCCCGU [Eternabot (L2) Solution 43] (Eterna round: R97, puzzle: Exclusion 4) | 37 nM | 23.9 nM |  |  |  | 

Sequence | apparent KD of MS2 coat protein (input ligand: FMN 200 uM) | apparent KD of MS2 coat protein (input ligand: none) | apparent KD of MS2 coat protein [1] | apparent KD of MS2 coat protein [2] | apparent KD of MS2 coat protein [3] | apparent KD of MS2 coat protein [4]
UAUUCGAUAGGAUAUGCACAUCAUUUGGGAGGUAACAGUGCACAUGAGGAUCACCCAUGUAGAAGGAUCUGGAU [Eternabot (L2) Solution 46] (Eterna round: R97, puzzle: Exclusion 2) | 102 nM | 118 nM |  |  |  | 
GAUUGAGAGCAGGAUAUCUUAGAAAUGUAUGAAAGAGAAGGGCUCACAUGAGGAUCACCCAUGUGGUCCUAGAU [JL Dibiri mod 17] (puzzle: Exclusion 6) |  |  |  | 22.8 nM | 244 nM | 27.5 nM
UUUCCCGUUCAGGCUGGAAACAUGAGGAUCACCCAUGUUCAAUCGGUUCUGUUAGCUGCUCGUCUUUUACACUUUCC [Eternabot (L1) Solution 39] (Eterna round: R97, puzzle: Sensor, turn-off variant 1) | 20.5 nM | 20.3 nM |  |  |  | 
AGAGAGUCAGGAUAUCGAAGGGAGAGAAAAGGAGAGAGGUACGAGAAGGGACAUGAGGAUCACCCAUGUAGGUG [JR_Exclusion4)Sub015] (puzzle: Exclusion 4) |  |  |  | 413 nM | 279 nM | 622 nM
AUGAGCAGACGGAGAUCCAACAUGAGGAUCACCCAUGUCUCAUAAGCUUUUUGUUCAUCUUAUUGUACCUUGGUGCA [Mat - Sensor v3 - turn-off var 1 - JL Mod - D25] (Eterna round: R96, puzzle: Sensor v3, turn-off variant 1) | 242 nM | 198 nM | 25.4 nM |  |  | 
GUGUAGAUAGGAUAUGCUUUGAGCCUACGAAAGUACGCUCGACAUGAGGAUCACCCAUGUAGAAGGGUUUACAC [LRO-Excl2-05] (puzzle: Exclusion 2) |  |  |  | 88.7 nM |  | 
AUUUUGUGAGGAUAUUAGUUGUAGAAAGUUGUUAGUAUUGCUGAGAAGGCACAUGAGGAUCACCCAUGUACAAC [JR_Ex4_Sub038] (Eterna round: R97, puzzle: Exclusion 4) | 20.6 nM | 19.1 nM |  |  |  | 
AGCUAGUCAGGAUAUACGAACAUGUCAAAAGACGUGAAGGGACAUGAGGAUCACCCAUGUAGAAGGGACUAGCC [salish99-Ex2-17] (Eterna round: R96, puzzle: Exclusion 2) |  |  | 23.8 nM |  |  | 
AAGUAGUCUGUGAGGAUAUUGGUGGAAUGACACAUUAAGAAGGUACAUGAGGAUCACCCAUGUGGGUAAAGACG [Brourd's EX4 #24] (Eterna round: R97, puzzle: Brourd's mod of Exclusion 4) | 115 nM | 109 nM |  |  |  | 
UUUUAGGCAGGAUAUACAUUUUUUUUAUUAUCCUCAUUAUUACAUGAGGAUCACCCAUGUAGAAGGGCCAUUUU [My Design] (puzzle: Exclusion 2) |  |  |  | 38.5 nM |  | 
AGGUAGUCAGGAUAUUAAGAGUAGCGGGAUAACGCUACGAGUGAGAAGGGACAUGAGGAUCACCCAUGUUUUUU [JR_Ex4_Sub072] (Eterna round: R97, puzzle: Exclusion 4) | 22 nM | 22.5 nM |  |  |  | 
GCUUGUGGGCAAGGAUAUCCUACGCUGUUCUGGUUCGUGUCUGUCACAUGAGGAUCACCCAUGUGGGAGAAGGUGCAUUUGGGU [Design 58] (Eterna round: R96, puzzle: Exclusion NG 2) | 17.7 nM | 20.9 nM | 21.2 nM |  |  | 
GAAAACGCAGAGGAUAUAUCAGAUCAAAGCUGCAUAGAAGGCUGCACAUGAGGAUCACCCAUGUGGUCUUUAAU [Mat - Exclusion 6 - JL Mod - D1] (Eterna round: R97, puzzle: Exclusion 6) | 237 nM | 24 nM |  |  |  | 
GGUUGGCGAGGAUAUACAUGAGGAUCACCCAUGUGAGAGAAAAAAGUGAGGAAGAAACGUAGAAGGCGCUGACG [salish99_ex3_r3_037] (puzzle: Exclusion 3) |  |  |  | 34.2 nM | 42.6 nM | 45.2 nM
UGAACAUGAGGAUCACCCAUGUGGUUAGGUGAAAUCCUGCUGGAGGAUAUAAGUCCUGGUGCCGCUUAGAAGGCCAGCUGACAG [Eternabot solution 48] (Eterna round: R96, puzzle: Exclusion NG 3) | 72 nM | 82.5 nM | 56.7 nM |  |  | 
ACAUGUAUUGCAGGAUAUGGGACACAUGAGGAUCACCCAUGUGACCACAUGUAAUGCCACGGGUCUCAGAAGGGUAUGUACAUG [Ex NG2 #43] (Eterna round: R96, puzzle: Exclusion NG 2) | 117 nM | 26.6 nM | 22.9 nM |  |  | 
UCCACACAUGAGGAUCACCCAUGUGAGGAUAUCAUGCUUCGUAGUAAACUACGAAGUGUGAGAAGGCACAUGGC [Omei Ex1 D13] (Eterna round: R97, puzzle: Exclusion 1) | 94.7 nM | 24.9 nM |  |  |  | 
